In the Human Domainome abundance scans (Beltran et al. 2025):
± gives the uncertainty stated by the source.

B1: Transitional endoplasmic reticulum ATPase, residues 26 to 106; numbered along this chain, P55072 (parent)
chain: LIVDEAINEDNSVVSLSQPKMDELQLFRGDTVLLKGKKRREAVCIVLSDDTCSDEKIRMNRVVRNNLRVRLGDVISIQPCP

Variants of: B1
Assay: abundance fitness (aPCA) (normalised: wild type 0, dead -1); higher = more abundant; growth selection in yeast, the domain comes from the species named
Conditions: Homo sapiens
For V32S, the abundance fitness was -0.854 ± 0.11. Work on V32P yielded an abundance fitness of -1.09 ± 0.28. With V32C the abundance fitness was 0.007 ± 0.094. In the case of E9T, the abundance fitness is reported as -0.107 ± 0.076. Variant E9F has an abundance fitness of -0.057 ± 0.084. E9D showed an abundance fitness of 0.041 ± 0.091. Work on E9P yielded an abundance fitness of 0.048 ± 0.079. For C44M, the abundance fitness was 0.085 ± 0.077. C44R gave an abundance fitness of -0.104 ± 0.053. For C44F, the abundance fitness was -0.074 ± 0.091. C44N gave an abundance fitness of -0.172 ± 0.25. Variant D30N has an abundance fitness of -0.176 ± 0.088. In the case of D30C, the abundance fitness is reported as 0.035 ± 0.12. With D30S the abundance fitness was -0.175 ± 0.064. With D30M the abundance fitness was -0.047 ± 0.1. Variant D30L has an abundance fitness of -0.468 ± 0.07. D30W showed an abundance fitness of -0.286 ± 0.079. For N11A, the abundance fitness was -0.105 ± 0.048. For N11S, the abundance fitness was 0.039 ± 0.051. K56G showed an abundance fitness of 0.008 ± 0.04. For K56W, the abundance fitness was -0.35 ± 0.055. With K56R the abundance fitness was -0.012 ± 0.068. K56L showed an abundance fitness of -0.047 ± 0.055. K56Q gave an abundance fitness of 0.067 ± 0.1. K56E gave an abundance fitness of -0.088 ± 0.073. Variant K56P has an abundance fitness of -0.971 ± 0.2. Variant V13D has an abundance fitness of -0.103 ± 0.079. Work on V13L yielded an abundance fitness of -0.095 ± 0.047. With V13N the abundance fitness was -0.236 ± 0.12. Work on R64I yielded an abundance fitness of -0.061 ± 0.17. In the case of R64M, the abundance fitness is reported as -0.036 ± 0.16. In the case of R64P, the abundance fitness is reported as -1.06 ± 0.3. For R64L, the abundance fitness was -0.044 ± 0.056. In the case of L67V, the abundance fitness is reported as -0.35 ± 0.058. In the case of L67W, the abundance fitness is reported as -0.976 ± 0.17. In the case of L67E, the abundance fitness is reported as -0.853 ± 0.15. In the case of L67A, the abundance fitness is reported as -0.601 ± 0.074. Variant L67N has an abundance fitness of -0.757 ± 0.2. Variant S15D has an abundance fitness of -0.674 ± 0.1. Variant S15R has an abundance fitness of -0.001 ± 0.038. For S15F, the abundance fitness was 0.087 ± 0.11. Q25I showed an abundance fitness of -0.043 ± 0.081. With Q25C the abundance fitness was 0.006 ± 0.073. Variant Q25E has an abundance fitness of -0.156 ± 0.081. Work on Q25S yielded an abundance fitness of 0.027 ± 0.056. With Q25Y the abundance fitness was -0.485 ± 0.14. With D50H the abundance fitness was -0.021 ± 0.16. D50M showed an abundance fitness of 0.025 ± 0.1. Variant D50Y has an abundance fitness of -0.246 ± 0.11. Variant D50R has an abundance fitness of -0.057 ± 0.054. In the case of K37L, the abundance fitness is reported as -0.018 ± 0.082. Work on K37G yielded an abundance fitness of -0.05 ± 0.06. With K37C the abundance fitness was -0.226 ± 0.1. With K37I the abundance fitness was -0.182 ± 0.15. Work on K37E yielded an abundance fitness of -0.035 ± 0.12. K37A gave an abundance fitness of -0.222 ± 0.12. In the case of K37P, the abundance fitness is reported as -0.118 ± 0.097. In the case of D22T, the abundance fitness is reported as -0.037 ± 0.063. D22A showed an abundance fitness of -0.109 ± 0.05. In the case of D22C, the abundance fitness is reported as -0.083 ± 0.051. Variant D22W has an abundance fitness of -0.281 ± 0.057. With D22V the abundance fitness was -0.049 ± 0.054. D22Y gave an abundance fitness of -0.067 ± 0.088. With Q78I the abundance fitness was -0.023 ± 0.12. With Q78L the abundance fitness was -0.01 ± 0.06. Variant Q78D has an abundance fitness of 0.084 ± 0.087. Q78H gave an abundance fitness of -0.025 ± 0.12. Variant Q78G has an abundance fitness of -0.069 ± 0.048. Work on Q78S yielded an abundance fitness of -0.031 ± 0.078. Q78V gave an abundance fitness of 0.039 ± 0.064. For E5N, the abundance fitness was -0.018 ± 0.12. In the case of E5M, the abundance fitness is reported as 0.042 ± 0.063. With E5S the abundance fitness was 0.029 ± 0.052. Variant E5D has an abundance fitness of 0.003 ± 0.11. E5W gave an abundance fitness of -0.051 ± 0.044. In the case of R70E, the abundance fitness is reported as 0.106 ± 0.092. R70M showed an abundance fitness of -0.077 ± 0.092. With R70Q the abundance fitness was -0.157 ± 0.12. In the case of R70W, the abundance fitness is reported as -0.127 ± 0.072. In the case of R70T, the abundance fitness is reported as 0.017 ± 0.085. For L47V, the abundance fitness was -0.018 ± 0.052. With L47R the abundance fitness was -0.01 ± 0.054. L47Q gave an abundance fitness of -0.015 ± 0.088.
